± gives the uncertainty stated by the source.
Assay: self-splicing fitness, log relative to wild type (ln ratio); higher = more splicing; Tetrahymena group I intron in knt gene, E. coli kanamycin selection, DiMSum; sequences stand for … in CUCUCU…GGAGGGAAAAGUUAUCAGGCAUGCACCUGGUAGCUAGUCUUUAAACCAAUAGAUUGCAUCGGUUUAAAAGGCAAGACCGUCAAAUUGCGGGAAAGGGGUCAACAGCCGUUCAGUACCAAGUCUCAGGGGAAACUUUGAGAUGGCCUUGCAAAGGGUAUGGUAAUAAGCUGACGGACAUGGUCCUAACCACGCAGCCAAGUCCUAAGUCAACAGAUCUUCUGUUGAUAUGGAUGCAGUUCACAGACUAAAUGUCGGUCGGGGAAGAUGUAUUCUUCUCAUAAGAUAUAGUCGGACCUCUCCUUAAUGGGAGCUAGCGGAUGAAGUGAUGCAACACUGGAGCCGCUGGGAACUAAUUUGUAUGCGAAAGUAUAUUGAUUAGUUUUGGAGUACUCGUGGUCG
In short: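 Pooled colonies went to amplicon sequencing on an Illumina HiSeq 2500 after six replicate transformations. The plates were LB agar with 100 μg/mL carbenicillin, 50 μM IPTG and 0.2% rhamnose, with or without 25 μg/mL kanamycin, incubated overnight at 37°C or 30°C. The E. coli BL21(DE3) library had all eight P1ex-region intron nucleotides randomised, the intron placed in the knt kanamycin-resistance gene on pET-22b(+). DiMSum fitness is the error-weighted combination of replicate fold changes, kanamycin against none, normalised to wild type.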

Sequence	self-splicing fitness (ln) (30 °C)	self-splicing fitness (ln) (37 °C)
AUCGAGCAAUAUUACGAACC	-0.925 ± 0.36	-0.838 ± 0.4
AUCGAGCAAUAUUACGAGAG	-3.84 ± 0.39	-1.14 ± 0.19
AUCGAGCAAUAUUACGAUUU	-1.42 ± 0.11	-0.535 ± 0.13
AUCGAGCAAUAUUACGCACC	-1.65 ± 0.18	–
AUCGAGCAAUAUUACGCCUC	-2.06 ± 0.39	-1.98 ± 0.45
AUCGAGCAAUAUUACGGAGA	-2.8 ± 0.22	-2.7 ± 0.29
AUCGAGCAAUAUUACGGAGU	-3.83 ± 0.31	-2.42 ± 0.23
AUCGAGCAAUAUUACGGGUU	-3.65 ± 0.23	-2.32 ± 0.2
AUCGAGCAAUAUUACGGUCU	-3.03 ± 0.2	-1.77 ± 0.2
AUCGAGCAAUAUUACGUCGA	-2.83 ± 0.19	-2.03 ± 0.19
AUCUAGCAAUAUUACGAACC	-1.08 ± 0.18	-0.855 ± 0.2
AUCUAGCAAUAUUACGAACG	-0.816 ± 0.12	-0.644 ± 0.22
AUCUAGCAAUAUUACGAAUC	-4.05 ± 0.36	-3.15 ± 0.27
AUCUAGCAAUAUUACGACAC	-1.02 ± 0.11	0.13 ± 0.13
AUCUAGCAAUAUUACGAGAU	-2.88 ± 0.26	-2.31 ± 0.34
AUCUAGCAAUAUUACGAGCU	-2.29 ± 0.17	-0.565 ± 0.17
AUCUAGCAAUAUUACGAGUG	-1.41 ± 0.078	-1.32 ± 0.12
AUCUAGCAAUAUUACGCAGA	-3.1 ± 0.49	-1.82 ± 0.23
AUCUAGCAAUAUUACGCCCU	-0.479 ± 0.19	0.46 ± 0.19
AUCUAGCAAUAUUACGCUCG	-0.792 ± 0.091	-0.0276 ± 0.12
AUCUAGCAAUAUUACGGACU	0.0775 ± 0.11	0.443 ± 0.12
AUCUAGCAAUAUUACGGAGG	-1.93 ± 0.14	-1.96 ± 0.23
AUCUAGCAAUAUUACGGCAA	-0.584 ± 0.14	-0.113 ± 0.14
AUCUAGCAAUAUUACGGCCA	-1.06 ± 0.12	-0.879 ± 0.13

Sequence	self-splicing fitness (ln) (30 °C)	self-splicing fitness (ln) (37 °C)
AUCUAGCAAUAUUACGGGCG	-0.656 ± 0.1	-0.967 ± 0.11
AUCUAGCAAUAUUACGGGGG	-1.65 ± 0.11	-1.9 ± 0.15
AUCUAGCAAUAUUACGGGUC	-5.59 ± 0.41	-2.49 ± 0.23
AUCUAGCAAUAUUACGGUUA	-0.746 ± 0.15	-0.055 ± 0.12
AUCUAGCAAUAUUACGUACA	-1.73 ± 0.15	0.464 ± 0.17
AUCUAGCAAUAUUACGUCCA	-0.699 ± 0.14	0.279 ± 0.12
AUCUAGCAAUAUUACGUCCC	-0.434 ± 0.3	-0.129 ± 0.27
AUCUAGCAAUAUUACGUCUU	-0.776 ± 0.077	0.147 ± 0.1
AUCUAGCAAUAUUACGUGUG	-2.16 ± 0.1	-1.49 ± 0.12
AUCUAGCAAUAUUACGUUAU	-1.79 ± 0.11	-1.46 ± 0.11
AUCUAGCAAUAUUACGUUCU	-1.52 ± 0.09	-0.607 ± 0.11
AUCUAGCAAUAUUACGUUUA	-2.26 ± 0.13	-2.3 ± 0.13
AUGAAGCAAUAUUACGAGGC	-4.11 ± 0.27	-2.77 ± 0.23
AUGAAGCAAUAUUACGAGUA	-2.12 ± 0.079	-0.848 ± 0.088
AUGAAGCAAUAUUACGAGUG	-1.22 ± 0.056	-0.514 ± 0.081
AUGAAGCAAUAUUACGAUAC	-0.832 ± 0.11	-1.5 ± 0.17
AUGAAGCAAUAUUACGCCGA	-0.724 ± 0.11	-0.149 ± 0.15
AUGAAGCAAUAUUACGCGCU	-0.561 ± 0.082	0.35 ± 0.11
AUGAAGCAAUAUUACGCUCU	-0.29 ± 0.15	0.111 ± 0.18
AUGAAGCAAUAUUACGGAAG	-1.17 ± 0.1	-0.408 ± 0.16
AUGAAGCAAUAUUACGGAGA	-2.55 ± 0.33	-0.873 ± 0.23
AUGAAGCAAUAUUACGGAUU	-1.08 ± 0.078	-0.689 ± 0.1
AUGAAGCAAUAUUACGGGGG	-3.12 ± 0.24	-2.49 ± 0.28
AUGAAGCAAUAUUACGUAUA	-1.53 ± 0.11	-0.647 ± 0.11

Sequence	self-splicing fitness (ln) (30 °C)	self-splicing fitness (ln) (37 °C)
AUGAAGCAAUAUUACGUGGG	-2.55 ± 0.11	-2.67 ± 0.14
AUGAAGCAAUAUUACGUUCG	0.356 ± 0.086	0.464 ± 0.12
AUGAAGCAAUAUUACGUUUU	-2.36 ± 0.12	-1.7 ± 0.15
AUGCAGCAAUAUUACGAAUA	-2.68 ± 0.2	-1.68 ± 0.16
AUGCAGCAAUAUUACGACGA	-0.531 ± 0.081	-0.65 ± 0.089
AUGCAGCAAUAUUACGACUU	0.39 ± 0.068	0.224 ± 0.075
AUGCAGCAAUAUUACGAGUA	-2.98 ± 0.19	-1.53 ± 0.13
AUGCAGCAAUAUUACGAUAC	-2.96 ± 0.38	–
AUGCAGCAAUAUUACGAUGC	-2.06 ± 0.14	-0.432 ± 0.14
AUGCAGCAAUAUUACGCACC	-1.11 ± 0.18	-0.696 ± 0.21
AUGCAGCAAUAUUACGCAGA	-2.98 ± 0.16	-1.71 ± 0.12
AUGCAGCAAUAUUACGCAUG	-3.28 ± 0.35	-2.66 ± 0.31
AUGCAGCAAUAUUACGCAUU	-3.49 ± 0.11	-3.37 ± 0.19
AUGCAGCAAUAUUACGCCAA	-1.09 ± 0.12	-0.608 ± 0.14
AUGCAGCAAUAUUACGCCUG	-2.61 ± 0.35	–
AUGCAGCAAUAUUACGCGGC	-3.79 ± 0.47	–
AUGCAGCAAUAUUACGGCAA	0.0857 ± 0.12	0.0922 ± 0.12
AUGCAGCAAUAUUACGGCGG	-1.76 ± 0.068	-0.59 ± 0.081
AUGCAGCAAUAUUACGGGAU	-2.25 ± 0.088	-1.06 ± 0.097
AUGCAGCAAUAUUACGGGGG	-3.09 ± 0.18	-1.9 ± 0.16
AUGCAGCAAUAUUACGGGGU	-3.71 ± 0.17	-2.88 ± 0.18
AUGCAGCAAUAUUACGGUGA	-0.911 ± 0.093	-0.872 ± 0.1
AUGCAGCAAUAUUACGGUUA	-1.11 ± 0.079	-0.0917 ± 0.071
AUGCAGCAAUAUUACGUACC	-0.541 ± 0.084	0.409 ± 0.1

Sequence	self-splicing fitness (ln) (30 °C)	self-splicing fitness (ln) (37 °C)
AUGCAGCAAUAUUACGUAUG	-3.15 ± 0.16	-1.09 ± 0.16
AUGCAGCAAUAUUACGUCGA	-1.61 ± 0.09	-0.738 ± 0.11
AUGCAGCAAUAUUACGUCGC	-3.69 ± 0.31	-2.57 ± 0.32
AUGCAGCAAUAUUACGUCUC	-1.93 ± 0.071	-1.05 ± 0.092
AUGCAGCAAUAUUACGUGAG	-1.36 ± 0.049	-1.06 ± 0.073
AUGCAGCAAUAUUACGUUCC	-1.55 ± 0.18	-1.17 ± 0.22
AUGCAGCAAUAUUACGUUGG	-2.96 ± 0.098	-2.33 ± 0.17
AUGCAGCAAUAUUACGUUUU	-2.8 ± 0.1	-1.65 ± 0.099
AUGGAGCAAUAUUACGAGGU	-2.74 ± 0.2	-3.38 ± 0.31
AUGGAGCAAUAUUACGCACG	-2.3 ± 0.3	-1.26 ± 0.34
AUGGAGCAAUAUUACGCCUG	-2.34 ± 0.27	-2.3 ± 0.28
AUGGAGCAAUAUUACGCGGU	-2.6 ± 0.25	-2.29 ± 0.25
AUGGAGCAAUAUUACGGAUU	-2.09 ± 0.13	0.177 ± 0.13
AUGGAGCAAUAUUACGGGGA	-3.29 ± 0.4	-2.28 ± 0.32
AUGGAGCAAUAUUACGGUGU	-2.12 ± 0.18	-0.816 ± 0.24
AUGGAGCAAUAUUACGUAGA	–	-2.39 ± 0.42
AUGGAGCAAUAUUACGUCGG	-2.7 ± 0.26	-1.13 ± 0.24
AUGGAGCAAUAUUACGUUAG	-3.17 ± 0.32	-2.49 ± 0.29
AUGGAGCAAUAUUACGUUAU	-2.96 ± 0.13	-1.77 ± 0.12
AUGGAGCAAUAUUACGUUGC	-3.34 ± 0.4	-2.22 ± 0.42
AUGUAGCAAUAUUACGAAAC	-2.77 ± 0.24	-1.76 ± 0.27
AUGUAGCAAUAUUACGACAC	-1.31 ± 0.14	-0.0916 ± 0.2
AUGUAGCAAUAUUACGAGAG	-4.62 ± 0.39	-2.71 ± 0.22
AUGUAGCAAUAUUACGAGGG	-3.49 ± 0.23	-1.18 ± 0.22

From the supplement of paper PMC7877785
